Measured values: doi:10.1101/2022.05.12.491617

Columns and labels:
[1] = target: Drosophila melanogaster KCC variant B (Drosophila melanogaster); assay: SEC
[2] = target: Hydra vulgaris KCC (Hydra vulgaris); assay: SEC
[3] = target: Hydra vulgaris KCC (Hydra vulgaris); assay: SEC-MALLS

Substance	stoichiometry N [1]	stoichiometry N [2]	stoichiometry N [3]
Drosophila melanogaster KCC variant B (natural protein)	2	–	–
Hydra vulgaris KCC (natural protein)	–	2	2
